Source: patent US20230220098A1, “THERAPEUTIC DRUG FOR POLYCYTHEMIA” (PERSEUS PROTEOMICS INC., priority 2019, published 2023)

Legend:
HEL cells = assay: Combined effects of TfR436 and hydroxyurea on cell growth and cell death; type: cell-based; details: 72 hours
Protocol: HEL cells were cultured in an RPMI-1640 (Sigma-Aldrich)+10% FBS (Sigma-Aldrich)+1% PenStrep (Gibco) medium, and were then adjusted to 20000 cells/mL with the same medium as described above. Hydroxyurea (Wako Pure Chemical Industries, Ltd.) was weighed and was then dissolved in a concentration of 100 mM in distilled water for injection (Otsuka Pharmaceutical). The thus adjusted cell solution was seeded on a 96-well plate (Thermo SCIENTIFIC) in an amount of 100 μL/well. […]
From the plate after completion of the culture, the cultured cells in each well were dispensed into a V-bottom plate (Costar) in an amount of 100 μL, while pipetting. […] Then, the fluorescence of FL2 and the number of cells were measured. From the obtained results, the number of living cells (PI negative) and the number of dead cells (PI positive) were calculated, and thereafter, Viability (the number of PI-negative cells/the total number of cells×100) (%) and cell death percentage (100−Viability) (%) were calculated. Furthermore, the growth percentage in each well was calculated, when the number of living cells in the cell growth control was set to be 100%. […]

[1] = target: T1, soluble wild-type TfR (sTfR) and TfR mutant fragments (MF1 to MF7) (Homo sapiens, UniProt P02786); assay: ELISA reactivity with soluble wild-type TfR and TfR mutant fragments (binding site identification); details: suggested from mutant fragment reactivity
T1 construct: A human TfR extracellular domain (the amino acids at positions 89 to 760); made in house; host or cells: Expi293 cells
Protocol: (§1) A neomycin resistance gene and a DHFR gene were incorporated into the expression vector pCAGGS (Non-Patent Document 2: Niwa et al. 1991), and thereafter, the synthesized genes were each inserted into the multicloning site of the obtained expression vector, so as to produce a pCAGGS-Neo-DHFR-sTFR-myc-his expression plasmid. Using Expifectamine (Invitrogen), the Expi293 cells (Invitrogen) were transfected with the above-described plasmid, and were then cultured at 37° C. in 8% CO2 at 135 rpm for 5 days. Thereafter, a culture supernatant was recovered by centrifugation. A HisTrapHP (GE Healthcare) column was connected with AKTA prime (GE Healthcare), and sTfR or MF1 to MF7 were then purified using 20 mM Imidazole/DPBS as a binding buffer and 500 mM Imidazole/DPBS as an elution buffer. The eluted protein was subjected to buffer exchange with 30 mM HEPES, 5% trehalose, pH 7.2, by using a Zeba spin column (Thermo scientific).
(§2) The thus purified sTfR or MF1 to MF7 were diluted with PBST (Phosphate Buffered Saline with Tween 20, TaKaRa), and the diluted solutions were prepared at 7 stages by 3-fold dilution from 600 ng/mL. […] Thereafter, the absorbance at 450 nm (ref. 620 nm) was measured using a plate reader.

[2] = system: soluble wild-type TfR (sTfR) and TfR mutant fragments (MF1 to MF7); assay: as above; design: species or system human; details: TfR436 1 ug/mL; MF5 (positions 629, 630 and 633 substituted); FIG. 2
Protocol: as §1, §2

erythroblast cells = assay: Growth of normal erythroblast cells derived from CD34-positive cells; type: cell-based; details: FIG. 4
Protocol: Frozen CD34-positive cells (POIETICS) were thawed at 37° C., and were then suspended in IMDM (GIBCO)+30% FBS (Sigma-Aldrich) and 100 U/ml DNase (QIAGEN), and thereafter, the cells were […] according to the instructions of the manufacturer. Thereafter, the cells were adjusted to 5×10^4 cells/ml with a culture medium prepared by adding 2-ME (50 μmol/L) (GIBCO), hIL-3 (100 U/ml) (Milteny biotec), hEPO (4 U/ml) (Roche), and hSCF (50 ng/ml) (Peprotech) to an SF-03 medium (EIDIA Co., Ltd.). The resulting cells were dispensed into a 24-well plate in an amount of 1 ml/well, and were then cultured at 37° C. in a 5% CO2 incubator. Seven days later, the cells were seeded into a 96-well plate, and the antibody was then added thereto in an amount of 0.15 ng/mL to 10 μg/mL, followed by culturing the mixture. A well without addition of the antibody was used as a control. Ninety six hours later, each well was fully stirred by pipetting, and 150 μl of the cell lysate was transferred into a V-bottom plate. Then, 20 μI of the transferred cell lysate was absorbed by FACS Calibur, and the number of cells was then counted. The value obtained by multiplying the obtained cell number by 10 was set to be the number of cells per well, and the growth percentage of the cells at each concentration of the antibody was then calculated, while the mean value of the control was set to be 100%.

T1 sequence (P02786 89-760, change not shown): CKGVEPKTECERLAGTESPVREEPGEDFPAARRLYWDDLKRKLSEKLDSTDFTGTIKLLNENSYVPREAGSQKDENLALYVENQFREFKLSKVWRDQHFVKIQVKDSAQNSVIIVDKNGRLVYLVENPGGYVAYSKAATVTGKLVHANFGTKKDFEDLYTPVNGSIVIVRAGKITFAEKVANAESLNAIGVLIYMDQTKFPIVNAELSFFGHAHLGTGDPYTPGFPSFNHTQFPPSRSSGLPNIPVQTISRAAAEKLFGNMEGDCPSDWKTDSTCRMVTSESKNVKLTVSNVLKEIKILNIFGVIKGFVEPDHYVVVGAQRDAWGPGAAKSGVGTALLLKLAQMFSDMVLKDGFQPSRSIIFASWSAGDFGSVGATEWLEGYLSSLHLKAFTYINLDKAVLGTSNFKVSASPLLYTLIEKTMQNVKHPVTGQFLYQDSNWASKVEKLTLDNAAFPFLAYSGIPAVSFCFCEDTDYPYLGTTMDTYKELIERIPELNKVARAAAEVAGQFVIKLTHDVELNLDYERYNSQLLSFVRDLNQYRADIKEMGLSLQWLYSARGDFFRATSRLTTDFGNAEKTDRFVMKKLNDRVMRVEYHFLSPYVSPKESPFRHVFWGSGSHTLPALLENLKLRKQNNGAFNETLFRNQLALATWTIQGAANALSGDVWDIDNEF

B1: TfR436: anti-human transferrin receptor antibody, VH SEQ ID NO: 7 and VL SEQ ID NO: 8, described in WO2014/073641; called PPMX-T003 in Tables 3 and 4 (antibody, listed as Homo sapiens, V domains shown)
VH: DVQLVQSGGGVVQPGRSLRLSCAASGFPFKSYGMHWVRQAPGKGLEWVAVISYDGSNKYYADSVKGRFTISRDNSKNTLYLQMNSLRGEDTAVYYCARDSNFWSGYYSPVDVWGQGTTVTVSS
VL: NFMLTQPHSVSESPGKTVTISCTRSSGSIASNSVQWYQQRPGSAPITVIYEDTQRPSGVPDRFSGSIDSSSNSASLTISGLQTEDEADYYCQSYDSAYHWVFGGGTKLAVL
cell growth inhibition, combined use with hydroxyurea (HEL cells; Table 3): synergistic cell growth inhibition effects were observed from a half or more of combined uses
cell death percentage, combined use with hydroxyurea (HEL cells; all combined uses except lowest concentrations of both, Table 4): synergistic cell death-enhancing effects
epitope recognized [1]: amino acids at positions 629 to 633 of TfR
reactivity with TfR mutant fragment MF5 [2]: a reduction in the reactivity
growth of erythroblast cells (erythroblast cells; 0.15 ng/mL to 10 μg/mL, 96 hours): suppressed the growth
GI50 (erythroblast cells; 96 hours culture): 0.125 µg/mL
